Assays:
NCI-H358 NSCLC = assay: Growth inhibition of newly-implanted NCI-H358 xenografts; format: in vivo, mouse; details: 100 μg i.p. 2 times per wk from day 1, nu/nu mice
Protocol: (§1) FIG. 3A and FIG. 3B. […] FIG. 3A: 1×10^7 NCI-H358 NSCLC cells were injected subcutaneously into nu/nu mice on day 0. FIG. 3B: 5×10^6 A673 rhabdomyosarcoma cells were injected subcutaneously into nu/nu mice on day 0. Mice were injected i.p. with the indicated IgG on day 1 and 2 times/week thereafter. […] Tumors were measured 2-3 times per week. Mean and standard error is shown for the duration of the study in FIG. 3A, while data for the last day of the study (day 26) is shown in FIG. 3B.
(§2) Nu/nu mice were injected subcutaneously with either 1×10^7 NCI-H358 NSCLC cells or 5×10^6 A673 rhabdomyosarcoma cells on day 0. […] The tumors were then measured twice per wk for a period of approximately six wk for the NCI-H358 bearing mice and four wk for the A673 bearing mice. Tumor volume was calculated according to the formula: volume=L×W×H, where L=length, W=width, H=height.

A673 rhabdomyosarcoma [1] = assay: Growth inhibition of newly-implanted A673 xenografts; format: in vivo, mouse; details: 100 μg i.p. 2 times per wk from day 1, nu/nu mice
Protocol: as §1, §2

NCI-H358 NSCLC tumors = assay: Treatment of established NCI-H358 xenografts; format: in vivo, mouse
Protocol: FIG. 4. […] Mean tumor volume along with the SEM over 116 days is shown.
(§3) FIG. 5A and FIG. 5B. […] Treatments (T) were 100 μg of the IgG given i.p., except for the initial treatment that consisted of 500 μg of the IgG given i.v. Mean tumor volume along with the SEM is shown. At the end of the study (day 116), the mice were sacrificed and the tumors dissected out and weighed. […] The mice were treated every other day as indicated (T). […] Mean tumor volume along with the SE is shown.
(§4) Male nu/nu mice bearing subcutaneous NCI-H358 tumors or HT1080 fibrosarcoma 200-400 mm^3 in size were injected i.p. with test or control antibodies. The NCI-H358 bearing mice were treated with 100 μg of antibodies per injection three times a week during the first week and twice a week during the second and third week. The mice were then switched to 50 μg per injection every five days. The HT1080 bearing mice were treated with 100 μg of the indicated antibody or saline every other day throughout the duration of the study. In both studies, mice were sacrificed when their tumors reached 2500 mm^3 size or earlier if tumors began to ulcerate.
Doses were 50-100 μg every 3-5 days. […] In addition to measuring mean tumor volume (FIG. 4), photographs of the mice from each treatment group were also taken to show the differences in tumor size and appearance at the end of the study.

[2] = system: VEGF-mediated growth of ABAE cells; assay: Endothelial cell growth assay (MTS); format: cell-based, bovine; details: Table 5
Protocol: ABAE cells were grown in the presence of the various indicated antibodies and 0.5 nM VEGF. Growth after 4 days was determined colorimetrically by the enzymatic conversion of MTS (Owen's reagent) to a yellow formazan. […] Background was determined by growing cells without VEGF or antibody and was subtracted from the control and sample wells.
Adult bovine aortic endothelial (ABAE) cells were plated into 96-well tissue culture plates at 1500 cells/well and grown in the presence of 0.5 nM human VEGF with the addition of the various sample and control antibodies. Control wells received media with or without VEGF.
After 4 days of incubation, the cells were quantified by an MTS (3-(4,5-dimethylthiazol-2-yl)-5-(3-carboxylmethoxyphenyl)-2-(4-sulfophenyl)-2H-tetrazolium, inner salt) conversion assay, where MTS conversion to a formazan is proportional to cell number and can be followed by absorbance at 490 nm (Cell Titer 96 AQueous One Solution Cell Proliferation Assay, Promega, Madison, Wis.). The assay was performed according to the manufacturer's instructions.
Cell growth was estimated by subtracting the MTS conversion in cultures to which VEGF was not added. Results were expressed as a percentage of the MTS conversion in control cultures to which only VEGF was added (Buttke et al., 1993).

[3] = molecular target: T1, denatured VEGF121 and VEGF165 (Homo sapiens, UniProt P15692); assay: Western blot analysis; format: binding; details: reducing and non-reducing conditions
T1 sequence (P15692 27-191 isoform P15692-4): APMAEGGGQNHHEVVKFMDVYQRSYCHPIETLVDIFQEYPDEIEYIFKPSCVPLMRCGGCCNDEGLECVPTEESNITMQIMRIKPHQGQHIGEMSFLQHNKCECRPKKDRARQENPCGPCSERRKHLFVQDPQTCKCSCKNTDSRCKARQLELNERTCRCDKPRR
Protocol: The nitrocellulose membrane was blocked using Sea-Block PP82-41 (East Coast Biologics, Berwick, Me.), and probed with primary antibodies using a mini-blotter apparatus (Immunetics, Cambridge, Mass.). The membranes were developed after incubation with the appropriate peroxidase-conjugated secondary antibody by ECL enhanced chemiluminescence.
Western blot analyses of anti-VEGF antibodies were conducted by separating VEGF165 in the presence of 5% FCS using SDS-PAGE on a 12% gel and analyzing by a standard western blotting protocol using ECL detection. The primary antibodies were incubated with the nitrocellulose membrane using a multi-lane mini-blotter apparatus.

HT1080 fibrosarcoma = assay: Treatment of established HT1080 xenografts; format: in vivo, mouse; details: 100 μg i.p. every other day
Protocol: as §3, §4

[4] = molecular target: T2, VEGF alone or VEGF associated with sFlk-1 (VEGF:Flk-1) (Homo sapiens, UniProt P15692); assay: Indirect and capture ELISA, VEGF alone vs VEGF associated with sFlk-1; format: binding
T2 sequence (P15692 27-191 isoform P15692-4): T1 sequence (P15692 27-191 isoform P15692-4)
Protocol: The Flk-1/SEAP protein was produced and purified as described by Tessler et al. (1994). Basically, the extracellular domain of Flk-1(sFlk-1) was produced in Spodoptera frugiperda (Sf9) cells and purified by immunoaffinity techniques utilizing a monoclonal anti-Flk-1 antibody (1A8). sFlk-1 was then biotinylated and bound on avidin-coated plates.
The reactivity was determined as described above for the initial screening.
A capture ELISA was also developed. In the capture ELISA, microtiter plates were coated overnight at 4° C. with 100 ng of the indicated antibody. […] Streptavidin conjugated to peroxidase (Kirkegaard & Perry Laboratories, Inc.), diluted 1:2000, was used as a second layer and developed.

[5] = system: VEGFR2 (KDR/Flk-1; sFlk-1); assay: ELISA, VEGF binding to VEGFR2-coated wells; parameters: species or system mouse
Protocol: (§5) FIG. 2. […] The plate was then incubated with rabbit anti-VEGF (A-20, Santa Cruz Biotechnology, Inc.) at 1 μg/ml and developed using a peroxidase conjugated goat anti-rabbit antibody. Assays were performed in triplicate. Mean percent binding in the absence of antibody is shown, together with the standard deviation.
(§6) The assay was also performed by coating wells of a microtiter plate with either control or test IgG.

VEGFR1 (Flt-1/Fc) = assay: ELISA, VEGF binding to VEGFR1-coated wells; details: Table 5
Protocol: as §5, §6

A673 rhabdomyosarcoma [6] = assay: Treatment of established A673 tumors; format: in vivo, mouse; details: mice with established tumors
[7] = system: NCI-H358 NSCLC and HT29 colon adenocarcinoma xenografts and normal organs; assay: In vivo localization to human tumor xenografts in mice
Protocol: Tumors were grown subcutaneously in immunocompromised mice (NCI-H358 NSCLC in nu/nu mice and HT29 colon adenocarcinoma in SCID mice) until the tumnor volume was approximately 1 cm^3. 100 μg of unlabeled antibody for studies using SCID mice, or 100 μg of biotinylated antibody for studies using nude mice, was injected intravenously via a tail vein. Twenty four hours later, the mice were anesthetized, perfused with PBS, and tumnor and organs including heart, lungs, liver, kidneys, intestines and spleen were collected and snap frozen in liquid nitrogen.
The tumor and organs from each mouse were sectioned on a cryostat and stained for antibody immunohistochemically as above, with the exception that sections from the nude mice were developed using peroxidase labeled streptavidin-biotin complex (Dako, Carpinteria, Calif.) and the sections from the SCID mice were developed using two peroxidase-conjugated secondary antibodies, a goat anti-mouse IgG+IgM followed by a rabbit anti-goat IgG.
100 μg of GV39M and 3E7 or isotype-matched control IgG were injected into SCID mice bearing HT29 human colonic adenocarcinomas. Twenty-four hours later, the mice were sacrificed, exsanguinated and the tumors and tissues were removed. Frozen sections of the tumors and tissues were analyzed immunohistochemically to determine the binding and distribution of the antibodies (Table 4).

[8] = system: LS174T colon adenocarcinoma; assay: Treatment of established LS174T tumors; format: in vivo, mouse; details: mice with established tumors
[9] = Blood clearance of radioiodinated 2C3-GUS; format: in vivo, mouse; details: 125I-labelled, intravenous injection into mice
Protocol: 2C3-GUS was radioiodinated with ^125I to a specific activity of 5×10^6 cpm/μg. After intravenous injection into mice, the radioiodinated 2C3-GUS cleared from the blood with a t½α of about 6 hours and a t 1/2β of about 25 hours.

GUS enzymatic activity = format: biochemical
Source text: The 6-His GUS was pure based upon SDS-PAGE, where it ran as a single band of 75 kDa band. On gel filtration columns, the 6-His GUS runs as a tetramer of about 300 kDa.

[10] = system: human NCI-H358 NSCLC tumors; assay: In vivo localization of 2C3-GUS; parameters: species or system mouse; details: SCID mice bearing s.c. NCI-H358
[11] = 24 hours after i.v. antibody, 2C3 in NCI-H358/nu/nu, 3E7 and GV39M in HT29/SCID mice

Q: For “2C3: anti-VEGF monoclonal antibody, IgG2a,k, hybridoma ATCC PTA 1595; blocks VEGF binding to VEGFR2 but not VEGFR1 [Clone 2C3]”, which “Final tumor volume, NCI-H358 NSCLC” value (NCI-H358 NSCLC) is on record?
A: approximately 150 mm^3

Q: What about the “Final tumor volume, A673 rhabdomyosarcoma” value (A673 rhabdomyosarcoma [1]) of the same substance?
A: approximately 150 mm^3

Q: What about the “Mean tumor volume after approximately 14 wk of treatment” value (NCI-H358 NSCLC tumors; FIG. 5A study, 100 μg, at start 480 mm^3 (2C3), 428 mm^3 (3E7)) of the same substance?
A: 84 mm^3

Q: And the “Decrease in mean tumor volume” value (NCI-H358 NSCLC tumors; FIG. 5A study, approximately 14 wk)?
A: approximately 80%

Q: What about the “Mean tumor weight at the end of the study” value (NCI-H358 NSCLC tumors; FIG. 5A study, day 116) of the same substance?
A: 0.054 g

Q: And the “Mean tumor volume at the end of the study, % of the initial mean tumor volume” value (NCI-H358 NSCLC tumors; established tumors 300-450 mm^3, 50-100 μg i.p. every 3-5 days, approximately 10 weeks of treatment)?
A: 30%

Q: What about the “Blocks VEGF-induced proliferation” value [2] of the same substance?
A: Yes

Q: And the “Reactivity with VEGF on western blots” value [3]?
A: react

Q: What about the “Effect on growth of HT1080 tumors” value (HT1080 fibrosarcoma) of the same substance?
A: arrested the growth of the tumors

Q: And the “Predominant Reactivity” value [4]?
A: VEGF

Q: And the “Blocking of VEGF binding to VEGFR2 in ELISA” value ([5]; 100-1000 fold excess)?
A: blocked

Q: And the “Reduction in VEGF binding to VEGFR2” value ([5]; 100 fold molar excess over VEGF)?
A: about 74%

Q: What about the “VEGF bound to VEGFR2-coated wells, % of the amount bound in the absence of antibody” value ([5]; 1000-fold molar excess over VEGF (1 nM VEGF)) of the same substance?
A: ~19%

Q: And the “Reduction in VEGF binding to VEGFR2” value ([5]; 1000 fold molar excess over VEGF)?
A: about 81%

Q: And the “Blocks VEGF from binding to VEGFR2” value ([5]; Table 5)?
A: Yes

Q: What about the “Blocks VEGF from binding to VEGFR1” value (VEGFR1 (Flt-1/Fc)) of the same substance?
A: No

Q: What about the “Effect on growth of established A673 tumors” value (A673 rhabdomyosarcoma [6]) of the same substance?
A: significantly slowed the growth

Q: What about the “Immunohistochemical Reactivity, Heart” value [7, 11] of the same substance?
A: −

Q: And the “Immunohistochemical Reactivity, Intestine” value [7, 11]?
A: −

Q: What about the “Immunohistochemical Reactivity, Kidney” value [7, 11] of the same substance?
A: −

Q: What about the “Immunohistochemical Reactivity, Liver” value [7, 11] of the same substance?
A: −

Q: What about the “Immunohistochemical Reactivity, Lung” value [7, 11] of the same substance?
A: −

Q: What about the “Immunohistochemical Reactivity, Spleen” value [7, 11] of the same substance?
A: −

Q: What about the “Immunohistochemical Reactivity, Tumor” value [7, 11] of the same substance?
A: 3+

Q: And the “In vivo tumor localization pattern” value ([7]; CT connective tissue, BV blood vessels)?
A: Moderate to strong

Q: And the “Localization in the HT29 human tumor model” value ([7]; HT29)?
A: localized strongly to the connective tissue

Q: What about the “In vivo normal mouse tissue localization” value ([7]; mouse, in vivo) of the same substance?
A: None detectable

Q: And the “Structure specifically bound after i.v. injection” value ([7]; mouse, in vivo, iv)?
A: tumor stroma

Q: And the “Effect on growth of established LS174T tumors” value [8]?
A: significantly slowed the growth

Q: Which “t 1/2β, clearance from the blood” value [9] does the source give for 2C3-GUS [Clone 2C3-GUS] here?
A: about 25 hours

Q: What about the “t½α, clearance from the blood” value [9] of the same substance?
A: about 6 hours

Q: What about the “Enzymatic activity of GUS” value (GUS enzymatic activity) of the same substance?
A: retained enzymatic activity

Q: What about the “Localization in tumor after i.v. injection” value [10] of the same substance?
A: specifically localized to tumor vasculature and surrounding tumor stroma

Q: And the “Staining of normal tissues after i.v. injection” value [10]?
A: unstained

Reference: patent publication US6416758B1 (Board of Regents, The University of Texax System, priority 1999, dated 2002)
